{"source": "patent US5385834", "key": {"[1]": {"target": "T7 RNA polymerase (wild-type) (Bacteriophage T7) (UniProt P00573)", "details": "in vitro transcription, +/-0.003 vs T7 promoter; 80 nM enzyme"}, "[2]": {"target": "T7 RNA polymerase mutant GP1(lys222) E222K (Bacteriophage T7) (UniProt P00573)", "details": "in vitro transcription, +/-0.008 vs T7 promoter; 40 nM enzyme; may be nonspecific initiation"}}}
{"substance": "T3 promoter plasmid pLM10", "values": [{"measurement": "activity", "setting": "[1]", "result": 0.009, "unit": "relative"}, {"measurement": "activity", "setting": "[2]", "result": 0.027, "unit": "relative"}]}
